Key:
[1] = target: human mutant CSF-1R L301S Y969F (human) (UniProt P07333); assay: cell-based or functional assay
[2] = target: human wildtype CSF-1R (wt CSF-1R) (human, UniProt P07333 20-972); assay: cell-based or functional assay
MEC1 cells = assay: CLL xeno-transplantation system: MEC1 cells i.v. in Rag2−/−γc−/− mice; format: in vivo
Method: FIG. 4 Anti-leukemic effect of anti-CSF1R moAb in the CLL xeno-transplantation system. • (A-B-C-D-E) i.v. MEC1 challenged (day 0) Rag2^−/−γc^−/− mice were treated i.v. (day +11, +25) with 30 mg/Kg of anti-CSF1R moAb (n=3, white circles) or left untreated (n=4, black circles) and killed at day 27 (A). The mean value of the absolute number of CD11b+ F4/80+ cells gated on CD45+ in SP (B) and BM (C) is shown in graphs. The mean value of the absolute number of human CD19+ cells in the BM is shown in graph (D). The mean value of the absolute number of human CD19+ cells and of Ann-PI+ cells gated on hCD19+ cells in SP is shown in graphs (E). Data are from one representative experiment of three. Statistical analysis: *p<0.05, **p<0.01, Student's t test. (F-G-H-I) i.v. MEC1 challenged (day 0) Rag2^−/−γc^−/− mice were treated i.v. (day +11, +25) with 30 mg/Kg of anti-CSF1R moAb) (n=7, white circles) or left untreated (n=7, black circles) and killed at days 27 and 29, 48 h and 96 h after the last moAb injection (F). The mean value of the absolute number of human CD19+ cells and of Ann-PI+ cells gated on hCD19+ cells in SP at days 27, 29 is shown in graphs (G). […]
FIG. 5 Anti-leukemic effect and survival impact of anti-CSF1R moAb in the CLL xeno-transplantation system. • (A-B-C) i.v. MEC1 challenged (day 0) Rag2^−/−γc^−/− mice were treated i.v. (day +11, +25) with 30 mg/Kg of anti-CSF1R moAb (n=3, white circles) or left untreated (n=4, black circles) and killed at day 27 (A). […] Statistically significant differences were calculated using the Student t test. **p<0.01, ***p<0.001. (D-E) i.v. MEC1 challenged (day 0) Rag2^−/−γc^−/− mice were left untreated (n=10, black circles) or treated with: 30 mg/Kg i.v. of anti-CSF1R moAb (n=11, white circles; day +11, +25); or 30 mg/Kg i.p. of anti-CD20 moAb GA101 (n=10, blue circles; day +11, +25); or 30 mg/Kg i.p. of anti-CD20 moAb GA101 (day +11, +25)+30 mg/Kg i.v. of anti-CSF1R moAb (day +18, +32) (n=10, violet circles) and monitored for survival (D). […]

PBMCs from CLL patients = assay: In vitro cultures and cell-depletion assays from CLL samples (PBMCs); format: cell-based, human; conditions: etanercept 10 μg/ml, 24 h; 3 out of 4 samples
Method: Statistically significant differences were calculated using the Student t test. *p<0.05 • (C) hCD19+ CDS+ depletion after 24 h treatment (n=3) with 100 μM, 500 μM, 1000 μM of clodrolip, with (black bar) or without (white bar) etanercept (10 n/ml) was calculated by the following formula: 100−% remaining cells, where % remaining cells=(Absolute number in treated samples/Absolute number in untreated samples)×100. (*p<0.05), Student's t test. • (D) hCD19+ CDS+ depletion after 24 h treatment (n=3) with clodrolip 1000 μM, with (black bar) or without (white bar) blocking anti-TRAIL-R2 moAb (1 μg/ml) was calculated by the following formula: 100−% remaining cells, where % remaining cells=(Absolute number in treated samples/Absolute number in untreated samples)×100.
Fresh PBMCs from untreated CLL patients were seeded, as triplicates, at 3×10^6 cells/ml in culture medium and treated with clodrolip or PBS liposomes (100, 500, 1000 μM) for 30 min and 24 h, in presence or absence of etanercept (10 μg/ml), a TNF-α antagonist from Pfizer or anti-TRAIL-R2 (human, 1 μg/ml) moAb (HS201) from Adipogen AG. […] The specific percentage of remaining leukemic CD19+CD5+ or CD14+ cells in treated samples was calculated as (absolute number in treated samples/absolute number in control samples)×100. […]

Anti CSF-1R SC 2-4A5 (Santa Cruz Biotechnology, US) (antibody)
Mutant CSF-1R IC30 (30 percent inhibition of cell viability, CellTiterGlo, 3D spheroid culture) [1]: 2.56 µg/mL
wtCSF-1R IC30 (30 percent inhibition of cell viability, CellTiterGlo, 3D spheroid culture) [2]: 16.6 µg/mL

GA101: glycoengineered humanized B-Ly1 antibody BHH6-B-KV1 GE, type II anti-human CD20
survival of mice, p vs untreated control (Log-Rank test) (MEC1 cells; 30 mg/Kg each, single agents days +11, +25, combination GA101 days +11, +25 + anti-CSF1R days +18, +32): 0.006

goat polyclonal anti-CSF-1R antibody ab10676 (abcam)
Mutant CSF-1R IC30 (30 percent inhibition of cell viability, CellTiterGlo, 3D spheroid culture) [1]: > 20 µg/mL
Mutant CSF-1R: inhibition of cell viability at 20 µg/ml [1]: 0%
wtCSF-1R IC30 (30 percent inhibition of cell viability, CellTiterGlo, 3D spheroid culture) [2]: 14.2 µg/mL

etanercept
effect on anti-leukemic effect of CSF1R moAb in the SP (MEC1 cells; etanercept 10 mg/Kg i.p. from day +10, CSF1R moAb 30 mg/Kg i.v. days +11, +25, day 29): abrogated
effect on clodrolip-induced leukemic cell depletion in the BM (MEC1 cells; etanercept 10 mg/Kg i.p. from day +10, clodrolip 60 μl i.v. days +11, +25, day 26): abated
effect on leukemic cell depletion induced by clodrolip (TNF blocked) (PBMCs from CLL patients): reduced

— US20180222985A1, “ANTIBODIES AGAINST HUMAN CSF-1R FOR USE IN INDUCING LYMPHOCYTOSIS IN LYMPHOMAS OR LEUKEMIAS” (Hoffmann-La Roche Inc., priority 2015, published 2018)
